T1: TPX2 amino acids 1-260 (Xenopus laevis, UniProt Q6NUF4 1-260)
T1 sequence (looked up): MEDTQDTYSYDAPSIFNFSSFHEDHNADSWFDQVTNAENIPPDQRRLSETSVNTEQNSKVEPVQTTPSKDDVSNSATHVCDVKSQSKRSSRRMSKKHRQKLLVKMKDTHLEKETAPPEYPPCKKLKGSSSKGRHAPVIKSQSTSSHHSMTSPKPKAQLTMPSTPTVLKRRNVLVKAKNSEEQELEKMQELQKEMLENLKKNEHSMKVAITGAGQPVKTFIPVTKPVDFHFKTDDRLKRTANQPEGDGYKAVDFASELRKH

T2: TPX2 amino acids 1-178 (Xenopus laevis, UniProt Q6NUF4 1-178)
T2 sequence (looked up): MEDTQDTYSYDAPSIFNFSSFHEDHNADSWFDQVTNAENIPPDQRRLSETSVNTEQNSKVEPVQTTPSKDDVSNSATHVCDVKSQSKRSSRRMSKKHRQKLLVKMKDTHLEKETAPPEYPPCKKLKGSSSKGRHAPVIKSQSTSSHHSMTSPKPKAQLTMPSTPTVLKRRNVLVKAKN

B1: Targeting Protein for XKlp2 (TPX2), full length, GFP-tagged (natural protein, Xenopus laevis, UniProt Q6NUF4 1-716, looked up)
chain: MEDTQDTYSYDAPSIFNFSSFHEDHNADSWFDQVTNAENIPPDQRRLSETSVNTEQNSKVEPVQTTPSKDDVSNSATHVCDVKSQSKRSSRRMSKKHRQKLLVKMKDTHLEKETAPPEYPPCKKLKGSSSKGRHAPVIKSQSTSSHHSMTSPKPKAQLTMPSTPTVLKRRNVLVKAKNSEEQELEKMQELQKEMLENLKKNEHSMKVAITGAGQPVKTFIPVTKPVDFHFKTDDRLKRTANQPEGDGYKAVDFASELRKHPPSPVQVTKGGHTVPKPFNLSKGKRKHEEASDYVSTAEQVIAFYKRTPARYHLRSRQREMEGPSPVKMIKTKLTNPKTPLLQTKGRHRPVTCKSAAELEAEELEMINQYKFKAQELDTRILEGGPVLLKKPLVKEPTKAIGFDLEIEKRIQQREKKEEIEEETFTFHSRPCPSKMLTDVVGVPLKKLLPVTVPQSPAFALKNRVRIPAQEEKQEEMVPVIKATRMPHYGVPFKPKLVEQRQVDVCPFSFCDRDKERQLQKEKRLDELRKDEVPKFKAQPLPQFDNIRLPEKKVKMPTQQEPFDLEIEKRGASKLQRWQQQIQEELKQQKEMVVFKARPNTVVHQEPFVPKKENRSLTESLSGSIVQEGFELATAKRAKERQEFDKCLAETEAQKSLLEEEIRKRREEEEKEEISQLRQELVHKAKPIRKYRAVEVKASDVPLTVPRSPNFSDRFKC
B2: importin-αΔIBB (importin-α without the importin-β binding domain) (domain or fragment)
chain: not shown
B3: TPX2 N-terminus (a.a. 1-480) (domain or fragment, Xenopus laevis, UniProt Q6NUF4 1-480, looked up)
chain: MEDTQDTYSYDAPSIFNFSSFHEDHNADSWFDQVTNAENIPPDQRRLSETSVNTEQNSKVEPVQTTPSKDDVSNSATHVCDVKSQSKRSSRRMSKKHRQKLLVKMKDTHLEKETAPPEYPPCKKLKGSSSKGRHAPVIKSQSTSSHHSMTSPKPKAQLTMPSTPTVLKRRNVLVKAKNSEEQELEKMQELQKEMLENLKKNEHSMKVAITGAGQPVKTFIPVTKPVDFHFKTDDRLKRTANQPEGDGYKAVDFASELRKHPPSPVQVTKGGHTVPKPFNLSKGKRKHEEASDYVSTAEQVIAFYKRTPARYHLRSRQREMEGPSPVKMIKTKLTNPKTPLLQTKGRHRPVTCKSAAELEAEELEMINQYKFKAQELDTRILEGGPVLLKKPLVKEPTKAIGFDLEIEKRIQQREKKEEIEEETFTFHSRPCPSKMLTDVVGVPLKKLLPVTVPQSPAFALKNRVRIPAQEEKQEEMVPVI
B4: importin-α/β heterodimer (GST-importin-α bound to importin-β) (complex)
chain 1: not shown
chain 2: MELVTILEKTVSPDRNELEAAQKFLEQAAVENLPTFVVELSKVLANPANSQVARVAAGLQIKNPLTSRDPDVKAQYQQRWLAIDASARGEIKTYVLRTLGTESYRPSSASQCVAGIACAEITVNQWPQLIPQLVANVTDPNSTERMKESTLEAIGYICQDIDPEQLQHKSNEILTAIIQGMRKEEPSNNVRLAATNALLNSLEFTKANFDKESERHYIMQVVCEATQCPDTRVRVAALQNLVKIMSLYYQYMETYMGPALFAITVEAMKNEIDEVALQGIEFWSNVCDEEMDLAIEASEAAEQGRPPEHTSKFYAKGALQYLVPILTQTLTKQDENDDDDDWNPCKAAGVCLMLLATCCEDDIVPHVLPFIKEHIKNPDWRYRDAAVMAFGCILEGPESCQLKPLVIQAMPTLIELMKDPSVVVRDTTAWTVGRICELLPEAAINDVYLAPLLQCLIEGLGAEPRVASNVCWAFSSLAEAAYEAADVADDQEEPSSYCLSSSFEVIVQKLLETTDRPDGHQNNLRSAAYEALMEIVKNSAKDCYPAVQKTTLVIMERLQQVLQVESHIQSTSDRIQFNDLQSLLCATLQNVLRKVQHQDALQISDVVMASLLRMFQSTAGSGGVQEDALMAVSTLVEVLGAEFLKYMEAFKPFLTIGLKNYAEYQVCLAAVGLVGDLCRALQSNILPFCDEMMQFLLENLGNENVHRSVKPQILSVFGDVALAIGGEFKKYLDVVLNTLQQASQAQVDKSDYDMVDYLNELREGCIEAYTGIIQGLKGDQENVHPDVMLVQPRVEFILSFIDHIAGDEDHTDSVVACGAGLIGDLCTAFGKDVLKLVEARPMIHELLTEGRRSKTNKTKTLATWATKELRKLKNQA
B5: importin-β (natural protein, Xenopus laevis, UniProt P52297 1-876, looked up)
chain: B4 chain 2

Experiments:
[1] = biological target: B5; experiment: BLI
[2] = biological target: B4; experiment: BLI
[3] = biological target: T1, TPX2 amino acids 1-260; experiment: BLI
[4] = biological target: T2, TPX2 amino acids 1-178; experiment: BLI
[5] = biological target: B1; experiment: BLI
[6] = biological target: B1; experiment: SEC-MALS
[7] = biological target: the molecule itself; experiment: SEC-MALS
[8] = biological target: GST-importin-α (full length) (Xenopus laevis); experiment: SEC-MALS

Binder: B1
- Kd [1]: 530 ± 75 nM
- Kd [2]: 75 ± 15 nM

Binder: B2
- Kd [3]: 20 ± 4 nM
- Kd [4]: 15 ± 3 nM
- Kd [5]: 61 ± 10 nM
- stoichiometry N [6]: ≥ 1
- stoichiometry N [7]: 2

Binder: B3
- Kd [1]: 512 ± 70 nM

Binder: B4
- stoichiometry N [6]: 1

Binder: B5
- stoichiometry N [8]: 1

— article doi:10.1101/2020.09.01.276469 (bioRxiv, 2020)
